Data: US20210230600, “NUCLEIC ACID-DRUG COMPLEX AND USE THEREOF” (Industrial Technology Research Institute, published 2021)

T1: TLR9 (Mus musculus, UniProt Q9EQU3 Q9EQU3:26-1032)
T1 sequence: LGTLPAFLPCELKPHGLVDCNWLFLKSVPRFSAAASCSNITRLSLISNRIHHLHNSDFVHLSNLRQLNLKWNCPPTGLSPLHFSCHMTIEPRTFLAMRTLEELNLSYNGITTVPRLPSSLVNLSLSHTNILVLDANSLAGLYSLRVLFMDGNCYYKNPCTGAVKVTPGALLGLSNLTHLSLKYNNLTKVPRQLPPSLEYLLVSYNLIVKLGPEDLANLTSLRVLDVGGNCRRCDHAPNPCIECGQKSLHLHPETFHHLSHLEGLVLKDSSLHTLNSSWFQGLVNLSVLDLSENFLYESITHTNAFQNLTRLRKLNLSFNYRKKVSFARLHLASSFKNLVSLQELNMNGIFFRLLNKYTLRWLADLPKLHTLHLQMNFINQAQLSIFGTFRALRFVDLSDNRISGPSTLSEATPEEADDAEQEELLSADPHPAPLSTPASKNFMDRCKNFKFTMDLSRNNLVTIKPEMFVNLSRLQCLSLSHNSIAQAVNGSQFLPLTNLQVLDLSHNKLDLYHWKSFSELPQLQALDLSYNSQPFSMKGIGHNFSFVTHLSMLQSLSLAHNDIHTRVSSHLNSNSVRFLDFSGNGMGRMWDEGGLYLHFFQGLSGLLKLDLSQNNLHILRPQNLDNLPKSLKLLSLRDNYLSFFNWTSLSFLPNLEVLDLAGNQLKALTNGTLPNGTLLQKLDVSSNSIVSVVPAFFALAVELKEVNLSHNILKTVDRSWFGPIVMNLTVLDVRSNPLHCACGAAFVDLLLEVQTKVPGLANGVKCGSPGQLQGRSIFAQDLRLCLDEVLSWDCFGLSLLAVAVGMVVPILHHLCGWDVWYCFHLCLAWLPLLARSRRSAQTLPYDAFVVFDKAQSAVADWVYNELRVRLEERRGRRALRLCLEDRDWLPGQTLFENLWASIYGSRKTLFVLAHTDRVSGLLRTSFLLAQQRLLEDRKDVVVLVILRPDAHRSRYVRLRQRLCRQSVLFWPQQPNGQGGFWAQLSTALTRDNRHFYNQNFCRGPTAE


Legend:
Conditions in all cases: tags: HEK-Blue mouse TLR9 reporter cells, InvivoGen
TLR9 [1] = target: T1, TLR9; assay: cell_activity; SEAP reporter activation, 37 C; 2.1 nM in FIG. 5 experiment
Experimental: (§1) HEK-Blue cells expressing mouse TLR9 (InvivoGen) were cultured in a complete DMEM medium (Dulbecco's modified Eagle's medium), which was supplemented with 100 μg/ml Normocin, 30 μg/ml Blasticidin, and 100 μg/ml Zeocin (all InvivoGen). HEK-Blue cells contained a secreted alkaline phosphatase (SEAP) reporting system, which produces colorimetric changes after interacting with TLR9.
(§2) HEK-Blue Detection mixture (cell culture medium for SEAP detection, InvivoGen) is used to detect the presence of SEAP, which is produced by stimulation of a TLR9 ligand through NF-κB activation. Detection mixture contained nutrients for cell growth and color substrate, whose color will change when it is hydrolyzed by SEAP. When HEK 293 cells expressing mouse TLR9 (InvivoGen) reached 60-80% confluency, they were collected, centrifuged and resuspended in Detection mixture. Cells (72,000) were seeded in each well of a 96-well plate (180 μl). The cells were then treated in combination with 20 μl PBS (unstimulated; as a negative control group), “CpG-L0-PS” (as a positive control group) or nucleic acid-drug complex samples of varying concentrations in PBS in duplicate wells, and incubated for 24 hours at 37° C. in 5% CO₂. The plate was read spectrophotometrically by using a multimode plate reader (Tecan, Infinite™ M200 PRO, Männedorf, Switzerland) at a wavelength of 620 nm to 655 nm.

TLR9 [2] = target: T1, TLR9; assay: cell_activity; SEAP reporter activation, 37 C
Experimental: as §1, §2
The experimental content is substantially the same as that of FIG. 4. The sample “CpG-L0-PS” in FIG. 5 corresponds to SEQ ID NO: 10 (which was not connected with anti-PD-L1 aptamer), and all phosphodiester bonds in the CpG oligonucleotide sequence were modified to phosphorothioate bonds.

TLR9 [3] = target: T1, TLR9; assay: cell_activity; SEAP reporter activation, 37 C; 1.3 nM in FIG. 5 experiment
Experimental: as §1, §2

TLR9 [4] = target: T1, TLR9; assay: cell_activity; SEAP reporter activation, 37 C; remark: listed apart in the source
Experimental: as §1, §2

TLR9 [5] = target: T1, TLR9; assay: cell_activity; SEAP reporter activation, 37 C; 5.5 nM in FIG. 5 experiment
Experimental: as §1, §2

| Binder | EC50 (TLR9 [2]) | EC50 (TLR9 [4]) | also measured |
| --- | --- | --- | --- |
| TCGAACGTTCGAACGTTCGAACGTTCGAAT (ssDNA, PS at all linkages) [CpG-L0-PS] |  |  | EC50 (TLR9 [1]): 2.09 nM |
| ApDC-A33B (ssDNA, PS at part of the linkages of the CpG part) DNA: TTTCGAACGTTCGAACGCCACATCAACTCATTGATAGACAATGCGTCCACCGTTCGAACGTTCGATT | 16400 nM |  |  |
| ApDC-A21B (ssDNA, PS at all linkages of the CpG part) DNA: TCGAACGTTCGAACGACTCATTGATAGACAATGCGTTTCGAACGTTCGAAT |  |  | EC50 (TLR9 [3]): 0.77 nM |
| PDL1-CpG30-PS (ssDNA, PS at all linkages of the CpG part) DNA: CACATCAACTCATTGATAGACAATGCGTCCTCGAACGTTCGAACGTTCGAACGTTCGAAT |  | 2.36 nM |  |
| ApDC5-PS (ssDNA, PS at all linkages of the CpG part) DNA: TCGAACGTTCGAACGTTCGAACGTTCGAATCACATCAACTCATTGATAGACAATGCGTCC |  |  | EC50 (TLR9 [5]): 2.48 nM |
| ApDC5-7PS (ssDNA, PS at part of the linkages of the CpG part) DNA: TCGAACGTTCGAACGTTCGAACGTTCGAATCACATCAACTCATTGATAGACAATGCGTCC |  | 72.2 nM |  |
| ApDC-A21A (ssDNA, PS at all linkages of the CpG part) DNA: TCGAACGTTCGAACGACTCATTGATAGACAATGCGTTCGAACGTTCGAACG | 0.6 nM |  |  |
| PDL1-CpG29-9PS (ssDNA, PS at part of the linkages of the CpG part) DNA: CACATCAACTCATTGATAGACAATGCGTCCTTCGAACGTTCGAACGTTCGAACGTTCGAA |  | 149 nM |  |
| TCGAACGTTCGAATACTCATTGATAGACAATGCGTTTCGAACGTTCGAAT (ssDNA, PS at all linkages of the CpG part) [ApDC-B21B] | 0.6 nM |  |  |
